Measured values: the DeepSol protein solubility set

Experiment: soluble on expression in E. coli; label from the status in PepcDB or PDB records

Sequence	soluble on expression in E. coli
MSLHKKDIIRLLETIAVYMELKGDNPFKVSAFRKAAAALEQDDRSLSEMDDMMSLSGIGKGTYSVIKEYIDEGKSSTLESLQKEVPEGLVPLLKLPGLGGKKIAKLYKELGVHDAESLKEACEQQKVQGLAGFGKKSEEKILQALGEAGKQPERFPIGYALRIAREIEEHLSQFTHIIKFSRAGSLRRARETVKDLDYIIATDHPAEVREQLLELPNIKSVIASGDTKVSVILSFEYETSVDFRLVTEEQFPTTLHHFTGSKDHNIKMRQIAKERGERISEYGVETVETGEIKTFPSEREFYAHFGLPLIPPEIRESEGHHHHHH	soluble
MSLHLSNVILHQLCKNDQDELVVKLRPASLENDASTENLVAELHRVFHSKAGKGFGSFQSDSEFQFWLQEMRKGERDFYDFSQISANRLKEELIKYPFADEGILVFAEYQSLATDYLFIGILPMNQSLKVTEGLDISATDYLDITKMDIAARIDLSSYETDKESNRYLQYIKGRVGRKVADFFLDFLQADIGLDTKQQNLVLMQAVDDFCADSKLEKQEVNEYKKQVYNYCNEQIKSGEEVQISELSGELPPSQDGTSFMDFTKEQGYELEESFPGDRSTVRKLTKYVGAGGGLNISFDSLLLGERIFYDPETDTLTIKGTPPNLKDQLSRNLEHHHHHH	soluble
MSLHNVVISGTGLFTPANSISNEELVESFNTYVHQFNSDNAAAIERGEVQALTESNAAFIEKASGIKSRFVMDKDGILDPQRMAPRLPERSNDEWSVLCQMAVAAAEQALQRAGKTAADIDGVIVACSNLQRAYPAIAIEVQAALGIQGFGFDMNVACSSATFGIQAACNSVQLGQARAILMVNPEVCTGHLNFRDRDSHFIFGDAATAVVIERADLATSEHQFDIVSTKLLTQFSNNIRNNFGFLNRAAEEGIGARDKLFVQEGRKVFRDVCPMVAELIAAHLEENQLNVSDVKRFWLHQANLSMNHLIVKKLLCREASVEEAPVILDTYANTSSAGSVIAFHKYQDDLASGSLAVLSSFGAGYSIGSVLLRKREGHHHHHH	soluble
MSLHVKVIVFGGSGFLGSHLVNRLDADEMVYFSLEKGNSVTRKDAKWVSGDVTDYSKVAEAMKDVDVAIFAVEDWNADEKRNREILLDGIKNVVNAVKANNTEQKVVSFSIINHPSYPLEFFRTKRLVEDNTRVLKNGLVVRLSFLFGEGDHFTDRFRKLSERVGHLSPEGNLAPVYVDDVVKVVNSILKREGVYDICSNDNLPLIKIVNYIRKMNGKKEIGETKLEKAISAVVETGLFAEYEAHLLFQDYYRETNILDRYVKDPLSYLDFLRGISVTHTTEGHHHHHH	soluble
MSLHVLTLAIARAASIDELALAANKQRELVESLMSRGVRTRFVMELIAAVNEQIIEKAFELVVPPALHDQCCLVVLGSEGRGEQILKTDQDNALIIQDGLEWHQCQPIMETLTHTLLQLGYPLCPGKVMVNNPKWVRSQSDWKRTLTDWVKAARPEQVMDIAIFADAHAVAGNRALLAPVKAHLQHLMAGQELILAEFTRPALNFSVPLTLFGNVKSSKQGIDIKQGGIFPIVHGVRALSLEHAIDANNTFDRIEALVKKRVLEQETGDNLSEAFKLFLKLRLAQQLGNQHSTNQLDFKQLDRTERDLLRHSLHVVKKFKQWLGYHYQIRDEGHHHHHH	soluble
MSLIAVLRINHRPFRDKRITTHVALTARAFGASSILVDEKDETLEQTINKVVENFGGNFFIKSGVDWKREFRNFKGIRVHLTMYGRPLEDVVKEIRESKKDVMILVGSEKVPFEAYEIADYNVSVTNQPISEVSALAIFLDRFYDGEELNWRFTGKINVYPSERGKKVKIIPDEQGCLDLLYKYGASDYLINHVKSVKELAVAIAKKTNADINLVTAGALLHDIGRTQVQGITHAVVGADILRREGIDDRVVSIVEKHIGAGIQSEEAVKLGLPPDNYVPETIEEMIVAHADNLFAGDKRLKLQQVVDNYRKKGLEDAAERIAKLHKFLSTVIGQDMDEIEGHHHHHH	soluble
MSLIEPDHPQLSIGQQCKLLSISRSSFYYTPKGETDQNLSLMRQIDEQFLETPFFGVRQMTWHLRNEHHLVNEKRIRRLMRLMGLMPIYQKPNNTSRPGRGHKTYPYLLRGLRVDRPNQVWCSDITYLPMRRGFLYLVAIMDWHTRKVLAWRISNTLEADFCVEALNEAIHKFGPPEIMNTDQGSQFTSFAWTDRLRRSGVRISMDGKGRFLDNIFIERLWRTLKYECVYLHAWETGSEAKAGIRKWMTFYNSASLRPSFYVVEGNRFCEGHHHHHH	not soluble
MSLIEVDLLNNDNLKKKTSGFTILSGDSTDGHGGYGAGVLSLDNVTPVFVDPEEERAFVDLGALHARSEVEKRIKFLPNKEEVPNGKLYWLVWVTIDSKKEGPYYAGVAGCEMTVDREIRRGYKSMPEHVNKMDKSIKGKIVVDDMDERSKRILGEYLKSFNEDMWKRSEPELREKLLGEKEGHHHHHH	soluble
MSLIFSKIRGNFQDLKDGKISVKQGLITKSDAIELFNIKNWKDYLKLFSIASEVRDFFKNEIEITSTVHVTNICSVTPKCAYCGFAAGTSSEGYVEPFRSNDEQIKSSAAAVENSGIKRVSCSSGHGYSGKEVIRALKAVKSASNLEVLVNAGADITEDCISELKKYNIDTICCNLETTNKSVFNKVKPGENLDDRISVCKMVKKHGIELSSGLLIGIGESYEDRAEHLFFLKELDVEEIPVMGFNPYKDTPMEQCPKCSAIEQAKTIAIARLLFPNIRITSPTPTMGPELAQFALLGGASNIATVIPDNHPMNIKGVGNPKTGNLNDVICMMKELGLTPKLNEGHHHHHH	soluble
MSLIKIGVIADDFTGATDIASFLVENGLPTVQINGVPTGKMPEAIDALVISLKTRSCPVVEATQQSLAALSWLQQQGCKQIYFKYCSTFDSTAKGNIGPVTDALMDALDTPFTVFSPALPVNGRTVYQGYLFVMNQLLAESGMRHHPVNPMTDSYLPRLVEAQSTGRCGVVSAHVFEQGVDAVRQELARLQQEGYRYAVLDALTEHHLEIQGEALRDAPLVTGGSGLAIGLARQWAQENGNQARKAGRPLAGRGVVLSGSCSQMTNRQVAHYRQIAPAREVDVARCLSIETLAAYAHELAEWVLGQESVLAPLVFATASTDALAAIQQQYGAQKASQAVETLFSQLAARLAAEGVTRFIVAGGETSGVVTQSLGIKGFHIGPTISPACREGHHHHHH	not soluble
MSLIKITIGICEYPSVLKSAVYGFEEMFLLANRICKEQNIEVVFEPILIPHTGLTAERLTVVLLPPASLDNYYLAPDDALIRWLKAHYSQGTVLSSACAGVFILAATNLIDSREVTTHWALAETFSQAFPSIALDSNKILINHGDIVTAGGMMSWLDLGFELIAKYASPGVVRQLGKTLVIDTAQRAQSYYQQFHPSFSHGDYAIVSIQQIMHQRYAEPLSIKQLAKQANLTERTMQRRFLKATGYNPNQYLQRLRIQSACHLLESTQHSFDSISHQVGYEDTSACRKVFINVIGLTPREFRKRFAEGHHHHHH	soluble
MSLIKLVAIDLDGTLLNSQKEISLRNKQALMAAKQAGVKVVICTGRPLAAIGPYLEELGLQDEGDYSITFNGGLVQKNDTGAIIEKTLMPLEAIHELYQLATTLNMPFDVLSDEVVMQLPSAPNYPSIYSSLNKLLTFESYKLEELTPNRIYNKVVVAIDEAYLNERIKEIPASFYERFEIIKTRNNLLEFMPKGITKAYGISLLAKDLGIRAEEIMTLGDEENDLPMIEYAGLGVAMANAIPLVKEAADVVTDTNDQDGVAKAVEKYILTPLEGGEGHHHHHH	soluble
MSLIKPDHPRLSILRQCALVSLSRSSFYYQEKGESPLNLKLMELIDRQFMETPFYGARQMARHLRNHEGYCVGRKKICRLMAKMGLVPIYQRPRTTKPHPEHVKYPYLLRDLVIDKPNQVWCTDITYIPMRRGFLYLVAIMDWHSRCVLSWRLSNTMEADFCVEALEEALNKFGKPEIFNTDQGSQFTSQSFTETLKEADIKISMDGKGAWTDNVFIERLWRSLKYECVYLHAFETGSKAHHGIGHWIQFYNERRPHSSLGGLSPNSVYETELWSEAAEGHHHHHH	not soluble
MSLIKVIDAHVHYHIYARKIPEHCKEFLENVEGTRMTLKNDNVEIEKILLVPSHPCHSEDCYDGFYIDYEERKRNPDLYMQWGEVNPLKCDVKRELERQYSLGIIGIKLHPVHHTFKPNAYREEEGGLKQLLYIYEFAEDHGLPILIHTGTSIGVGSRNKYADPIYADDIAKDFPKLRIILAHAGRPLWYNTAFHMARFTQNIFLEISSIPPKNILKVLPRIHEISDKVIYGSDFPAFKGQDLAEYAYQVYNVLKNEKIMRDNAKRILKISEGHHHHHH	not soluble
